Article PMC9816786 (2022)

Molecular target: T1, PCSK9 (Homo sapiens (Human), UniProt Q8NBP7)
T1 chain: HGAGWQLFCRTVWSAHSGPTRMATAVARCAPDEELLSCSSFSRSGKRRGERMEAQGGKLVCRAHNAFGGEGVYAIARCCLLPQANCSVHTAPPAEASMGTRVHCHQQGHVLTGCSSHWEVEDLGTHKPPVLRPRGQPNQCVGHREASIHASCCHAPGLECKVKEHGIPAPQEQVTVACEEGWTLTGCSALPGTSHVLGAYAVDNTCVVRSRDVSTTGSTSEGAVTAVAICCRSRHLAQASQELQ
Assay: BLI; pH 7.5

B1: CAP1 (protein)
chain: ADMQNLVERLERAVGRLEAVSHTSDMHRGYADSPSKAGAAPYVQAFDSLLAGPVAEYLKISKEIGGDVQKHAEMVHTGLKLERALLVTASQCQQPAENKLSDLLAPISEQIKEVITFREKNRGSKLFNHLSAVSESIQALGWVAMAPKPGPYVKEMNDAAMFYTNRVLKEYKDVDKKHVDWVKAYLSIWTELQAYIKEFHTTGLAWSKTGPVAKELSGLPSGPSAGSCPPPPPPCPPPPPVSTISCSYESASRSSLFAQINQGESITHALKHVSDDMKTHKNPALKAQSGPVRSGPKPFSAPKPQTSPSPKRATKKEPAVLELEGKKWRVENQENVSNLVIEDTELKQVAYIYKCVNTTLQIKGKINSITVDNCKKLGLVFDDVVGIVEIINSKDVKVQVMGKVPTISINKTDGCHAYLSKNSLDCEIVSAKSSEMNVLIPTEGGDFNEFPVPEQFKTLWNGQKLVTTVTEIAG
With B1 the Kd was 1360 nM.
